Consider two molecules from publication PMC5472179 (Nature Communications, 2017).

The experiment deals with T1, eVP30 110-272 (Ebola virus (Zaire), UniProt Q05323 110-272).
T1 sequence: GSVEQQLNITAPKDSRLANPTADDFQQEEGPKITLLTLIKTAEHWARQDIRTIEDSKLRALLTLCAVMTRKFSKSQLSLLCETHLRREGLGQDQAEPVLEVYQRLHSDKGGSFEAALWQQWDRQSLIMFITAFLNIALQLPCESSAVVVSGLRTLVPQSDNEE
The experiment can be described thus: fluorescence polarisation. Particulars: both partners purified. A general note: Fluorescence polarisation rises when a labelled molecule tumbles more slowly, as on binding a larger partner.

Ends that are not written are not given here. * marks the point of attachment. FITC = O=C1OC2(c3ccc(O)cc3Oc3cc(O)ccc32)c2ccc(NC(=S)*)cc21

Regarding RTPTVAPPAPVYRDHS [unlabeled eNP600-615 peptide], the binding result is “binds”.

With {FITC}-RTPTVAPPAPVYRDHS [FITC-labeled eNP600-615 peptide], the binding result is listed as “binds”.
